How the values were obtained:
[1] = target: T1, Human dendritic cell–specific ICAM-3–grabbing non-integrin (DC-SIGN; CD209), Q9NNX6; assay: flow cytometry on cells (hDC-SIGN+/SIGN-R1-/- murine BMDMs); settings: type I FcγRs blocked; PBS control = 1; read off a plot
T1 chain: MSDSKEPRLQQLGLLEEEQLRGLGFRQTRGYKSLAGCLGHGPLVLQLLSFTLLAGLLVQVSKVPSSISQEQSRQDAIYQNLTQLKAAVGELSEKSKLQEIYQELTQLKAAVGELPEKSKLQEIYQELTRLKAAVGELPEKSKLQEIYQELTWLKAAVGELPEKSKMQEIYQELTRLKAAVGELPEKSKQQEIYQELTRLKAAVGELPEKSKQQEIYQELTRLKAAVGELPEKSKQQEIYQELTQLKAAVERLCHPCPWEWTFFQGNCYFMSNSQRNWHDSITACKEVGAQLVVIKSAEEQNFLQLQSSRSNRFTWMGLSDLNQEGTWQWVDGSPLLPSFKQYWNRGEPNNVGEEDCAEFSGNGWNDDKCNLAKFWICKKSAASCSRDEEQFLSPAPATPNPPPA

[2] = target: Human neonatal Fc receptor (hFcRn), P55899; assay: SPR; biolayer interferometry (citing paragraph); settings: chain shown with the change

- response (fold change in MFI (normalized to PBS)) [1]: 1.4
- Kd [2]: 5.2 nM
B1: Wild-type human IgG1 Fc (Fc^WT) M252Y; S254T; T256E; H433K; N434F (protein)
chain: DKTHTCPPCPAPELLGGPSVFLFPPKPKDTLYITREPEVTCVVVDVSHEDPEVKFNWYVDGVEVHNAKTKPREEQYNSTYRVVSVLTVLHQDWLNGKEYKCKVSNKALPAPIEKTISKAKGQPREPQVYTLPPSRDELTKNQVSLTCLVKGFYPSDIAVEWESNGQPENNYKTTPPVLDSDGSFFLYSKLTVDKSRWQQGNVFSCSVMHEALKFHYTQKSLSLSPGK

From PMC10866649
